Residue numbers refer to the chain shown, from its start. Names may count otherwise.
B1: GLS3000 S56P one-arm antibody (antibody, human IgG1, kappa, L234A L235A, N297A, name in Kabat numbering)
light: DIVMTQSPLSLPVTPGEPASISCRSSQSLVHSNRNTYLHWYQQKPGQAPRLLIYKVSNRFPGVPDRFSGSGSGTDFTLKISRVEAEDVGVYYCGQGTQVPYTFGQGTKLEIKRTVAAPSVFIFPPSDEQLKSGTASVVCLLNNFYPREAKVQWKVDNALQSGNSQESVTEQDSKDSTYSLSSTLTLSKADYEKHKVYACEVTHQGLSSPVTKSFNRGEC
heavy: QVQLVESGGGVVQPGRSLRLSCAASGFTFSNAWMHWVRQAPGKGLEWVAQIKAKSNNYATYYAESVKGRFTISRDDSKNSLYLQMNSLKTEDTAVYYCRYVHYGAYYGVDAWGQGTTVTVSSASTKGPSVFPLAPSSKSTSGGTAALGCLVKDYFPEPVTVSWNSGALTSGVHTFPAVLQSSGLYSLSSVVTVPSSSLGTQTYICNVNHKPSNTKVDKKVEPKSCDKTHTCPPCPAPEAAGGPSVFLFPPKPKDTLMISRTPEVTCVVVDVSHEDPEVKFNWYVDGVEVHNAKTKPREEQYASTYRVVSVLTVLHQDWLNGKEYKCKVSNKALPAPIEKTISKAKGQPREPQVYTLPPSRCELTKNQVSLSCAVKGFYPSDIAVEWESNGQPENNYKTTPPVLDSDGSFFLVSKLTVDKSRWQQGNVFSCSVMHEALHNHYTQKSLSLSPDYKDDDDK
chain: EPKSSDKTHTCPPCPAPELLGGPSVFLFPPKPKDTLMISRTPEVTCVVVDVSHEDPEVKFNWYVDGVEVHNAKTKPREEQYNSTYRVVSVLTVLHQDWLNGKEYKCKVSNKALPAPIEKTISKAKGQPREPQVCTLPPSRDELTKNQVSLWCLVKGFYPSDIAVEWESNGQPENNYKTTPPVLDSDGSFFLYSKLTVDKSRWQQGNVFSCSVMHEALHNRYTQKSLSLSP
B2: GLS3000 T92S one-arm antibody (antibody, human IgG1, kappa, L234A L235A, N297A, name in Kabat numbering)
light: B1 light with P61S, T97S
heavy: B1 heavy
chain: B1 chain
B3: GLS3000 S56W one-arm antibody (antibody, human IgG1, kappa, L234A L235A, N297A, name in Kabat numbering)
light: B1 light with P61W
heavy: B1 heavy
chain: B1 chain
B4: GLS3000 T92D one-arm antibody (antibody, human IgG1, kappa, L234A L235A, N297A, name in Kabat numbering)
light: B1 light with P61S, T97D
heavy: B1 heavy
chain: B1 chain
B5: GLS3000 V51I one-arm antibody (antibody, human IgG1, kappa, L234A L235A, N297A, name in Kabat numbering)
light: B1 light with V56I, P61S
heavy: B1 heavy
chain: B1 chain
B6: GLS3000 T31I one-arm antibody (antibody, human IgG1, kappa, L234A L235A, N297A, name in Kabat numbering)
light: B1 light with T36I, P61S
heavy: B1 heavy
chain: B1 chain
B7: GLS3000 V51G one-arm antibody (antibody, human IgG1, kappa, L234A L235A, N297A, name in Kabat numbering)
light: B1 light with V56G, P61S
heavy: B1 heavy
chain: B1 chain
B8: GLS3000 S56V one-arm antibody (antibody, human IgG1, kappa, L234A L235A, N297A, name in Kabat numbering)
light: B1 light with P61V
heavy: B1 heavy
chain: B1 chain
B9: GLS3000 T92L one-arm antibody (antibody, human IgG1, kappa, L234A L235A, N297A, name in Kabat numbering)
light: B1 light with P61S, T97L
heavy: B1 heavy
chain: B1 chain
B10: GLS3000 S56R one-arm antibody (antibody, human IgG1, kappa, L234A L235A, N297A, name in Kabat numbering)
light: B1 light with P61R
heavy: B1 heavy
chain: B1 chain
B11: GLS3000 T31P one-arm antibody (antibody, human IgG1, kappa, L234A L235A, N297A, name in Kabat numbering)
light: B1 light with T36P, P61S
heavy: B1 heavy
chain: B1 chain
B12: GLS3000 T92I one-arm antibody (antibody, human IgG1, kappa, L234A L235A, N297A, name in Kabat numbering)
light: B1 light with P61S, T97I
heavy: B1 heavy
chain: B1 chain
B13: GLS3000 V51P one-arm antibody (antibody, human IgG1, kappa, L234A L235A, N297A, name in Kabat numbering)
light: B1 light with V56P, P61S
heavy: B1 heavy
chain: B1 chain
B14: GLS3000 T31K one-arm antibody (antibody, human IgG1, kappa, L234A L235A, N297A, name in Kabat numbering)
light: B1 light with T36K, P61S
heavy: B1 heavy
chain: B1 chain
B15: GLS3000 V94H one-arm antibody (antibody, human IgG1, kappa, L234A L235A, N297A, name in Kabat numbering)
light: B1 light with P61S, V99H
heavy: B1 heavy
chain: B1 chain
B16: GLS3000 S56Y one-arm antibody (antibody, human IgG1, kappa, L234A L235A, N297A, name in Kabat numbering)
light: B1 light with P61Y
heavy: B1 heavy
chain: B1 chain
B17: GLS3000 S56T one-arm antibody (antibody, human IgG1, kappa, L234A L235A, N297A, name in Kabat numbering)
light: B1 light with P61T
heavy: B1 heavy
chain: B1 chain
B18: GLS3000 V94L one-arm antibody (antibody, human IgG1, kappa, L234A L235A, N297A, name in Kabat numbering)
light: B1 light with P61S, V99L
heavy: B1 heavy
chain: B1 chain
B19: GLS3000 V94M one-arm antibody (antibody, human IgG1, kappa, L234A L235A, N297A, name in Kabat numbering)
light: B1 light with P61S, V99M
heavy: B1 heavy
chain: B1 chain
B20: GLS3000 V94K one-arm antibody (antibody, human IgG1, kappa, L234A L235A, N297A, name in Kabat numbering)
light: B1 light with P61S, V99K
heavy: B1 heavy
chain: B1 chain
B21: GLS3000 T92P one-arm antibody (antibody, human IgG1, kappa, L234A L235A, N297A, name in Kabat numbering)
light: B1 light with P61S, T97P
heavy: B1 heavy
chain: B1 chain
B22: GLS3000 T92E one-arm antibody (antibody, human IgG1, kappa, L234A L235A, N297A, name in Kabat numbering)
light: B1 light with P61S, T97E
heavy: B1 heavy
chain: B1 chain
B23: GLS3000 T97P one-arm antibody (antibody, human IgG1, kappa, L234A L235A, N297A, name in Kabat numbering)
light: B1 light with P61S, T102P
heavy: B1 heavy
chain: B1 chain
B24: GLS3000 V94E one-arm antibody (antibody, human IgG1, kappa, L234A L235A, N297A, name in Kabat numbering)
light: B1 light with P61S, V99E
heavy: B1 heavy
chain: B1 chain
B25: GLS3000 S56Q one-arm antibody (antibody, human IgG1, kappa, L234A L235A, N297A, name in Kabat numbering)
light: B1 light with P61Q
heavy: B1 heavy
chain: B1 chain
B26: GLS3000 V94F one-arm antibody (antibody, human IgG1, kappa, L234A L235A, N297A, name in Kabat numbering)
light: B1 light with P61S, V99F
heavy: B1 heavy
chain: B1 chain
B27: GLS3000 T31N one-arm antibody (antibody, human IgG1, kappa, L234A L235A, N297A, name in Kabat numbering)
light: B1 light with T36N, P61S
heavy: B1 heavy
chain: B1 chain
B28: GLS3000 T31E one-arm antibody (antibody, human IgG1, kappa, L234A L235A, N297A, name in Kabat numbering)
light: B1 light with T36E, P61S
heavy: B1 heavy
chain: B1 chain
B29: GLS3000 V94G one-arm antibody (antibody, human IgG1, kappa, L234A L235A, N297A, name in Kabat numbering)
light: B1 light with P61S, V99G
heavy: B1 heavy
chain: B1 chain
B30: GLS3000 T92A one-arm antibody (antibody, human IgG1, kappa, L234A L235A, N297A, name in Kabat numbering)
light: B1 light with P61S, T97A
heavy: B1 heavy
chain: B1 chain
B31: GLS3000 V94D one-arm antibody (antibody, human IgG1, kappa, L234A L235A, N297A, name in Kabat numbering)
light: B1 light with P61S, V99D
heavy: B1 heavy
chain: B1 chain
B32: GLS3000 V94I one-arm antibody (antibody, human IgG1, kappa, L234A L235A, N297A, name in Kabat numbering)
light: B1 light with P61S, V99I
heavy: B1 heavy
chain: B1 chain
B33: GLS3000 V51E one-arm antibody (antibody, human IgG1, kappa, L234A L235A, N297A, name in Kabat numbering)
light: B1 light with V56E, P61S
heavy: B1 heavy
chain: B1 chain

target: T1, CD3 epsilon homodimer protein (UniProt P07766 23-126); experiment: SPR Biacore T200, CD3e homodimer on chip, antibody analyte;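 further: CD3 epsilon homodimer amine-coupled on CM4 sensor chip, antibodies injected as analyte at 25 °C in HBS-EP+, ratio ≥0.8 taken as binding retained versus unaltered parent antibody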
T1 construct: Construct of the homodimer is not described; also called CD3 (CD3 epsilon)
T1 sequence (P07766 23-126): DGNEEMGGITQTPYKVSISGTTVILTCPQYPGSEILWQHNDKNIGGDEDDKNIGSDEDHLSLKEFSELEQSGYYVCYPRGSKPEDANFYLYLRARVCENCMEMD

**Q.** Which “ratio of amounts bound (altered form/GLS3000)” value does the source give for B1 here?
**A.** The value was 0.95.

**Q.** Which “ratio of amounts bound (altered form/GLS3000)” value does the source give for B2 here?
**A.** The value was 0.96.

**Q.** Which “ratio of amounts bound (altered form/GLS3000)” value does the source give for B3 here?
**A.** The value was 1.38.

**Q.** B4 was tested. Which “ratio of amounts bound (altered form/GLS3000)” value did it give?
**A.** Its value is 0.18.

**Q.** For B5, which “ratio of amounts bound (altered form/GLS3000)” value is on record?
**A.** Its value is 0.81.

**Q.** Which “ratio of amounts bound (altered form/GLS3000)” value does the source give for B6 here?
**A.** The value was 0.97.

**Q.** Which “ratio of amounts bound (altered form/GLS3000)” value does the source give for B7 here?
**A.** Its value is 0.84.

**Q.** Which “ratio of amounts bound (altered form/GLS3000)” value does the source give for B8 here?
**A.** The value was 0.95.

**Q.** B9 was tested. Which “ratio of amounts bound (altered form/GLS3000)” value did it give?
**A.** Its value is 0.42.

**Q.** For B10, which “ratio of amounts bound (altered form/GLS3000)” value is on record?
**A.** Its value is 1.36.

**Q.** For B11, which “ratio of amounts bound (altered form/GLS3000)” value is on record?
**A.** Its value is 0.31.

**Q.** How did the “ratio of amounts bound (altered form/GLS3000)” value turn out when B12 was run?
**A.** The value was 0.34.

**Q.** For B13, which “ratio of amounts bound (altered form/GLS3000)” value is on record?
**A.** The value was 0.32.

**Q.** B14 was tested. Which “ratio of amounts bound (altered form/GLS3000)” value did it give?
**A.** Its value is 1.04.

**Q.** With B15 as the binder, how does the “ratio of amounts bound (altered form/GLS3000)” value read?
**A.** The value was 0.78.

**Q.** For B16, which “ratio of amounts bound (altered form/GLS3000)” value is on record?
**A.** The value was 1.46.

**Q.** With B17 as the binder, how does the “ratio of amounts bound (altered form/GLS3000)” value read?
**A.** Its value is 0.97.

**Q.** For B18, which “ratio of amounts bound (altered form/GLS3000)” value is on record?
**A.** The value was 0.44.

**Q.** How did the “ratio of amounts bound (altered form/GLS3000)” value turn out when B19 was run?
**A.** The value was 0.44.

**Q.** How did the “ratio of amounts bound (altered form/GLS3000)” value turn out when B20 was run?
**A.** The value was 0.57.

**Q.** With B21 as the binder, how does the “ratio of amounts bound (altered form/GLS3000)” value read?
**A.** The value was 0.26.

**Q.** With B22 as the binder, how does the “ratio of amounts bound (altered form/GLS3000)” value read?
**A.** The value was 0.17.

**Q.** With B23 as the binder, how does the “ratio of amounts bound (altered form/GLS3000)” value read?
**A.** The value was 0.31.

**Q.** Which “ratio of amounts bound (altered form/GLS3000)” value does the source give for B24 here?
**A.** The value was 0.5.

**Q.** How did the “ratio of amounts bound (altered form/GLS3000)” value turn out when B25 was run?
**A.** Its value is 1.04.

**Q.** For B26, which “ratio of amounts bound (altered form/GLS3000)” value is on record?
**A.** Its value is 0.71.

**Q.** For B27, which “ratio of amounts bound (altered form/GLS3000)” value is on record?
**A.** The value was 0.32.

**Q.** How did the “ratio of amounts bound (altered form/GLS3000)” value turn out when B28 was run?
**A.** Its value is 0.49.

**Q.** Which “ratio of amounts bound (altered form/GLS3000)” value does the source give for B29 here?
**A.** The value was 0.48.

**Q.** B30 was tested. Which “ratio of amounts bound (altered form/GLS3000)” value did it give?
**A.** Its value is 0.63.

**Q.** B31 was tested. Which “ratio of amounts bound (altered form/GLS3000)” value did it give?
**A.** Its value is 0.89.

**Q.** B32 was tested. Which “ratio of amounts bound (altered form/GLS3000)” value did it give?
**A.** The value was 0.66.

**Q.** How did the “ratio of amounts bound (altered form/GLS3000)” value turn out when B33 was run?
**A.** The value was 0.64.

— patent US20240270846A1 (published 2024)
